# From paper PMC8989681, “Functional and structural deficiencies of Gemin5 variants associated with neurological disorders” (Life Science Alliance, 2022)
# T1: G5_(845-1508)-A951E-TAP (human), Q8TEQ6
# T1 chain: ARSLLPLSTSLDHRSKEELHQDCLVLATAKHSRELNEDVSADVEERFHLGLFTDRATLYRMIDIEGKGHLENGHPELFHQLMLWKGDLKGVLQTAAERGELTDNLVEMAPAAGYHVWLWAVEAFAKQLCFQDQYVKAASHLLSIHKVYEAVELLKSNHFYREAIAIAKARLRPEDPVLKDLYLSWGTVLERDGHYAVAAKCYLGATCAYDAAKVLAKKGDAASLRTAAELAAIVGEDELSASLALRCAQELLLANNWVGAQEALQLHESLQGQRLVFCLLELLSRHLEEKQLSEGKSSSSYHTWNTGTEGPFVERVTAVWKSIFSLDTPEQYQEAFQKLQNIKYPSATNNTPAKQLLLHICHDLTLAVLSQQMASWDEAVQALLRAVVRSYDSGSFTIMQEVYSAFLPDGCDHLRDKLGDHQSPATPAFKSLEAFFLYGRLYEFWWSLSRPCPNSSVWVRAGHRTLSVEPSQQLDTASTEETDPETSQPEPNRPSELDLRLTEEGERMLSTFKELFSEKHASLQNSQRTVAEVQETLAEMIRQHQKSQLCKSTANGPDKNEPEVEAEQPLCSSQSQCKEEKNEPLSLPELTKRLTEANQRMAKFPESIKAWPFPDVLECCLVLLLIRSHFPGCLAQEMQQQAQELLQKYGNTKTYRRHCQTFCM
# T2: G5_(845-1508)-R1016C-TAP (human, UniProt Q8TEQ6 845-1508, R1016C)
# T2 construct: Vector pcDNA3-CTAP; source: HEK293, transfected, in soluble cell extract; purified by TAP
# T2 sequence (looked up): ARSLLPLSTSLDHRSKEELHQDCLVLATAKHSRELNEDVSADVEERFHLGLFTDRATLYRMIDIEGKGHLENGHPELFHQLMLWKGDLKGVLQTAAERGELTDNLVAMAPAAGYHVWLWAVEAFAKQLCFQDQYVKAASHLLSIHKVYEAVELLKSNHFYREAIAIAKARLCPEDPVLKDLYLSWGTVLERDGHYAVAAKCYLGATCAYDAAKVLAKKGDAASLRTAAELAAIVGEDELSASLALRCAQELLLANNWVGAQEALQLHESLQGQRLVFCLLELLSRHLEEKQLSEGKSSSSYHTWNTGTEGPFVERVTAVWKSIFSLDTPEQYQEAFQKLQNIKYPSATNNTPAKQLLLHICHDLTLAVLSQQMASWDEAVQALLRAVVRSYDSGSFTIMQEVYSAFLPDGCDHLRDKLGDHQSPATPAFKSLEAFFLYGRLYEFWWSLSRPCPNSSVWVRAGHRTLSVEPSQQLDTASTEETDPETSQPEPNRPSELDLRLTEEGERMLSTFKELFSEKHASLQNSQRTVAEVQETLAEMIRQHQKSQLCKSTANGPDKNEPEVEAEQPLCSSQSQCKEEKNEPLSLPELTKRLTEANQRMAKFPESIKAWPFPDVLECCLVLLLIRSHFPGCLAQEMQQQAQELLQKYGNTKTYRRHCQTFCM
# T3: G5_(845-1508)-L1367P-TAP (human, UniProt Q8TEQ6 845-1508, L1367P)
# T3 construct: Vector pcDNA3-CTAP; Expressed at lower levels than the WT; also called RBS1 variant L1367P; source: HEK293, transfected, in soluble cell extract; purified by TAP
# T3 sequence (looked up): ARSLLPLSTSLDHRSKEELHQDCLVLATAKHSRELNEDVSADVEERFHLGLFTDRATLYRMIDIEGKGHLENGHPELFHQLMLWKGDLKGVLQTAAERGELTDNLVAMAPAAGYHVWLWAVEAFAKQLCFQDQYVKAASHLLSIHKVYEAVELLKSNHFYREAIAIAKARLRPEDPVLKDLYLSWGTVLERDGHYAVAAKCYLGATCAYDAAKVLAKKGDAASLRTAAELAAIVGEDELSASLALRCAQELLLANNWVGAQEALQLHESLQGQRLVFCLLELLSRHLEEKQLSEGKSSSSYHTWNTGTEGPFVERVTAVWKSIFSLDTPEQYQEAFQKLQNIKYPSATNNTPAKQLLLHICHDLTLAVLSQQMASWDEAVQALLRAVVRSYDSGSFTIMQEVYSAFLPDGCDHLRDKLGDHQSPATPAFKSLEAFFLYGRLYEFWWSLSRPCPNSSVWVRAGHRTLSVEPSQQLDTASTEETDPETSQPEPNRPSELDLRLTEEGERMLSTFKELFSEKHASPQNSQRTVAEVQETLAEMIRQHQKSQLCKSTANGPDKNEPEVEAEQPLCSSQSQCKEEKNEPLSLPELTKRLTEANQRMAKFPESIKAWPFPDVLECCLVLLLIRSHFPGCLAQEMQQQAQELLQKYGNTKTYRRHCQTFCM
# T4: G5_(845-1508)-D1019E-TAP (human, UniProt Q8TEQ6 845-1508, D1019E)
# T4 construct: Vector pcDNA3-CTAP; source: HEK293, transfected, in soluble cell extract; purified by TAP
# T4 sequence (looked up): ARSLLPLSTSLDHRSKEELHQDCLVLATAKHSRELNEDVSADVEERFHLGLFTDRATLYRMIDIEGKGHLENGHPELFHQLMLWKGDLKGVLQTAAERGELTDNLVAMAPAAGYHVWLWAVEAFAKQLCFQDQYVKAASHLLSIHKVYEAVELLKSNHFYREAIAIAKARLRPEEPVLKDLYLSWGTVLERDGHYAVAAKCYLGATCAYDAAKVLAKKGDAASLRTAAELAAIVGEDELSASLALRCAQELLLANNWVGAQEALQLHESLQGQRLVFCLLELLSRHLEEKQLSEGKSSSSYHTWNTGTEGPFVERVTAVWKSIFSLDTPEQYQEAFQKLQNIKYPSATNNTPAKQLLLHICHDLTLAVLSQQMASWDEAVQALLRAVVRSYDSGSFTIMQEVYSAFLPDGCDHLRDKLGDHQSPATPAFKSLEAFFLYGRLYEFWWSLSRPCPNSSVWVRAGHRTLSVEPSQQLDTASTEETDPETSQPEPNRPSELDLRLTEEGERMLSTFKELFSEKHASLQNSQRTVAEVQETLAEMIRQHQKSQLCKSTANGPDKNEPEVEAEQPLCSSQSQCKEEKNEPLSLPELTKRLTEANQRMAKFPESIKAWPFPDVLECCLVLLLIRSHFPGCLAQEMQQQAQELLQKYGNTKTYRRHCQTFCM
# Legend:
# [1] = biological target: T1, G5_(845-1508)-A951E-TAP (human), Q8TEQ6; assay: co-IP; G5_(845-1508)-TAP baits expressed 24 h in HEK293; complexes purified by TAP (IgG Sepharose, TEV protease, calmodulin); endogenous Gemin5 and bait detected by WB with anti-Gemin5; Gemin5 intensity normalised to the purified bait; settings: remark: other sources report otherwise
# G5_(845-1508)-R1016C-TAP [2] = biological target: T2, G5_(845-1508)-R1016C-TAP; assay: affinity purification with mass spectrometry; G5_(845-1508)-TAP baits expressed in HEK293; TAP purification, in-gel trypsin digestion, LC-MS/MS, PEAKS; two biological replicates; at least two distinct peptides; settings: partners not purified
# G5_(845-1508)-L1367P-TAP = biological target: T3, G5_(845-1508)-L1367P-TAP; assay: as above; settings: partners not purified
# G5_(845-1508)-D1019E-TAP [3] = biological target: T4, G5_(845-1508)-D1019E-TAP; assay: as above; settings: partners not purified
# G5_(845-1508)-R1016C-TAP [4] = biological target: T2, G5_(845-1508)-R1016C-TAP; assay: co-IP; G5_(845-1508)-TAP baits expressed 24 h in HEK293; complexes purified by TAP (IgG Sepharose, TEV protease, calmodulin); endogenous Gemin5 and bait detected by WB with anti-Gemin5; Gemin5 intensity normalised to the purified bait; settings: partners not purified
# G5_(845-1508)-D1019E-TAP [5] = biological target: T4, G5_(845-1508)-D1019E-TAP; assay: as above; settings: partners not purified
# [6] = biological target: the molecule itself; assay: SEC-MALS; 250 ul of purified TPR-like domain at 1-3 mg/ml on Superdex 200 10/300; 20 mM Tris-HCl pH 6.8, 0.2 M NaCl, 5% glycerol, 1 mM DTT; 0.5 ml/min
fold by which the recruitment by WT exceeds that by this mutant [1] [fold],"ratio of peptide reads of region 1-844 to region 845-1508, relative to G5_(845-1508)-WT (G5_(845-1508)-R1016C-TAP [2])","ratio of peptide reads of region 1-844 to region 845-1508, relative to G5_(845-1508)-WT (G5_(845-1508)-L1367P-TAP)","ratio of peptide reads of region 1-844 to region 845-1508, relative to G5_(845-1508)-WT (G5_(845-1508)-D1019E-TAP [3])",co-IP intensity relative to the WT protein (G5_(845-1508)-R1016C-TAP [4]) [%],co-IP intensity relative to the WT protein (G5_(845-1508)-D1019E-TAP [5]) [%],Binder,stoichiometry N [6]
10,0.77,0.9,0.56,58,62,"endogenous Gemin5 protein (natural protein, human (endogenous in HEK293), UniProt Q8TEQ6 1-1508, looked up, Gemin5, human, full-length endogenous protein of HEK293 cells; also called full-length Gemin5; source: endogenous, HEK293 soluble cell extract) MGQEPRTLPPSPNWYCARCSDAVPGGLFGFAARTSVFLVRVGPGAGESPGTPPFRVIGELVGHTERVSGFTFSHHPGQYNLCATSSDDGTVKIWDVETKTVVTEHALHQHTISTLHWSPRVKDLIVSGDEKGVVFCYWFNRNDSQHLFIEPRTIFCLTCSPHHEDLVAIGYKDGIVVIIDISKKGEVIHRLRGHDDEIHSIAWCPLPGEDCLSINQEETSEEAEITNGNAVAQAPVTKGCYLATGSKDQTIRIWSCSRGRGVMILKLPFLKRRGGGIDPTVKERLWLTLHWPSNQPTQLVSSCFGGELLQWDLTQSWRRKYTLFSASSEGQNHSRIVFNLCPLQTEDDKQLLLSTSMDRDVKCWDIATLECSWTLPSLGGFAYSLAFSSVDIGSLAIGVGDGMIRVWNTLSIKNNYDVKNFWQGVKSKVTALCWHPTKEGCLAFGTDDGKVGLYDTYSNKPPQISSTYHKKTVYTLAWGPPVPPMSLGGEGDRPSLALYSCGGEGIVLQHNPWKLSGEAFDINKLIRDTNSIKYKLPVHTEISWKADGKIMALGNEDGSIEIFQIPNLKLICTIQQHHKLVNTISWHHEHGSQPELSYLMASGSNNAVIYVHNLKTVIESSPESPVTITEPYRTLSGHTAKITSVAWSPHHDGRLVSASYDGTAQVWDALREEPLCNFRGHRGRLLCVAWSPLDPDCIYSGADDFCVHKWLTSMQDHSRPPQGKKSIELEKKRLSQPKAKPKKKKKPTLRTPVKLESIDGNEEESMKENSGPVENGVSDQEGEEQAREPELPCGLAPAVSREPVICTPVSSGFEKSKVTINNKVILLKKEPPKEKPETLIKKRKARSLLPLSTSLDHRSKEELHQDCLVLATAKHSRELNEDVSADVEERFHLGLFTDRATLYRMIDIEGKGHLENGHPELFHQLMLWKGDLKGVLQTAAERGELTDNLVAMAPAAGYHVWLWAVEAFAKQLCFQDQYVKAASHLLSIHKVYEAVELLKSNHFYREAIAIAKARLRPEDPVLKDLYLSWGTVLERDGHYAVAAKCYLGATCAYDAAKVLAKKGDAASLRTAAELAAIVGEDELSASLALRCAQELLLANNWVGAQEALQLHESLQGQRLVFCLLELLSRHLEEKQLSEGKSSSSYHTWNTGTEGPFVERVTAVWKSIFSLDTPEQYQEAFQKLQNIKYPSATNNTPAKQLLLHICHDLTLAVLSQQMASWDEAVQALLRAVVRSYDSGSFTIMQEVYSAFLPDGCDHLRDKLGDHQSPATPAFKSLEAFFLYGRLYEFWWSLSRPCPNSSVWVRAGHRTLSVEPSQQLDTASTEETDPETSQPEPNRPSELDLRLTEEGERMLSTFKELFSEKHASLQNSQRTVAEVQETLAEMIRQHQKSQLCKSTANGPDKNEPEVEAEQPLCSSQSQCKEEKNEPLSLPELTKRLTEANQRMAKFPESIKAWPFPDVLECCLVLLLIRSHFPGCLAQEMQQQAQELLQKYGNTKTYRRHCQTFCM",
,,,,,,"Gemin5 TPR-like dimerization domain D1019E (domain or fragment, human, UniProt Q8TEQ6 845-1097, looked up, Tag cut by PreScission protease; also called TPR-like D1019E; source: E. coli BL21-Rosetta (DE3) pLysS, purified (HisTrap, tag cleavage, SEC in 0.2 M NaCl); not shown: His6, N-terminal, cleaved; MBP, N-terminal, cleaved) ARSLLPLSTSLDHRSKEELHQDCLVLATAKHSRELNEDVSADVEERFHLGLFTDRATLYRMIDIEGKGHLENGHPELFHQLMLWKGDLKGVLQTAAERGELTDNLVAMAPAAGYHVWLWAVEAFAKQLCFQDQYVKAASHLLSIHKVYEAVELLKSNHFYREAIAIAKARLRPEEPVLKDLYLSWGTVLERDGHYAVAAKCYLGATCAYDAAKVLAKKGDAASLRTAAELAAIVGEDELSASLALRCAQELLL",2
